Measurements: paper doi:10.1101/2021.04.08.436756
Like-named read-outs stand apart in the source and are kept apart here.

Key:
[1] = biological target: T1, myc-GIPR-Rluc (UniProt P48546)
T1 sequence: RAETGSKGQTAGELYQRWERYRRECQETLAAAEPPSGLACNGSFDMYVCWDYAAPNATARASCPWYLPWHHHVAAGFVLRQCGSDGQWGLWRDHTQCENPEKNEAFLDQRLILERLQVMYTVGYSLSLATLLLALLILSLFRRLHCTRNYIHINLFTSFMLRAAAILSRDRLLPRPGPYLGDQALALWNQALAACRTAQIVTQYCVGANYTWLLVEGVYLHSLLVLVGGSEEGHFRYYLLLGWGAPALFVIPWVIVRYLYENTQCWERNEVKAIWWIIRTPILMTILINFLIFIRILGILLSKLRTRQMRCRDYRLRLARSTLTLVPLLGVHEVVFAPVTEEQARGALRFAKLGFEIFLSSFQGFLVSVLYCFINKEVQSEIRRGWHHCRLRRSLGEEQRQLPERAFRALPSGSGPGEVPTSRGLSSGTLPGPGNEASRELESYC

[2] = biological target: T1, myc-GIPR-Rluc; remark: listed apart in the source

ERK1/2 phosphorylation, biphasic model, high potency component; pEC50 1 [1]	ERK1/2 phosphorylation, biphasic model, low potency component; pEC50 2 [1]	[Ca^2+]i mobilisation, HEK-293S cells with untagged GIPR; pEC50 [1]	cAMP accumulation, 8 min stimulation, HEK-293S cells with untagged GIPR; pEC50 [1]	ERK1/2 phosphorylation, biphasic model, high potency component; pEC50 1 [2]	ERK1/2 phosphorylation, biphasic model, low potency component; pEC50 2 [2]	Substance
9.13 -logEC50	6.22 -logEC50	8.7 -logEC50	9.83 -logEC50			GIP (1-42) (from UniProt P09681 52-93) (peptide)
				8.72 -logEC50	6.88 -logEC50	GIP (D-Ala2) (from UniProt P09681 52-93) (peptide)
				7.49 -logEC50	4.5 -logEC50	GIP (Pro3) (peptide)
